Assay results: patent US20150299258A1 (UNIVERSITY OF TOKYO, published 2015)
Positions of bridges follow the written chain, without caps; N, C: chain ends.

How the values were obtained:
[1] = biological target: VEGFR2 expressed by HUVEC (human, UniProt P35968 20-1356); test: cell-based or functional assay
[2] = biological target: T1, fusion protein of human VEGFR2 and Fc (human, UniProt P35968 20-764, limits assumed); test: BLI (ForteBio), VEGFR2-Fc on anti-human IgG capture biosensors, peptide in solution, 30 C
T1 construct: not shown: Fc
T1 sequence (P35968 20-764 limits assumed): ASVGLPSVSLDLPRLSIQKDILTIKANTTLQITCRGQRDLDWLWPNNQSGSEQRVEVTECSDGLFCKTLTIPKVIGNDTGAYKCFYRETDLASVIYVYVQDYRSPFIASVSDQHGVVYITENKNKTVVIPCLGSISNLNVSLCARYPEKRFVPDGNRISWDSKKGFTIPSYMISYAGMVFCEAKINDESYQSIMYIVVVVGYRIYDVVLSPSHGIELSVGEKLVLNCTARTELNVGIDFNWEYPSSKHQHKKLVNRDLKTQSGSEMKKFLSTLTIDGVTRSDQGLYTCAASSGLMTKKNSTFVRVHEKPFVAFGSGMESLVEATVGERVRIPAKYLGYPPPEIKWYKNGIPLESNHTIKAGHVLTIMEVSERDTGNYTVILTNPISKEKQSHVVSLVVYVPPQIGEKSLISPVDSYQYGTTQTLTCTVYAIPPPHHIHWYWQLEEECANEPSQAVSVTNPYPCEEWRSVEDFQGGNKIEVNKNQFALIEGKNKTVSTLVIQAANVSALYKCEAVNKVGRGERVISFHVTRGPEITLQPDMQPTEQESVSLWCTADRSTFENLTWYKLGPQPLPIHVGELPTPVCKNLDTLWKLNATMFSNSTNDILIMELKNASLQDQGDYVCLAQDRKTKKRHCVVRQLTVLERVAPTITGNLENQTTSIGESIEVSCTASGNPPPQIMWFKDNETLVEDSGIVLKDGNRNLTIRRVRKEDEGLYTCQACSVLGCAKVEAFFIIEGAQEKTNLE
Method: A dissociation constant of binding between the cyclic peptide L1 or BL1 thus synthesized and human VEGFR2 or mouse VEGFR2 was determined by BLI method (ForteBio). A fusion protein of VEGFR2 and Fc was immobilized onto Anti-human IgG Capture Biosensors and the cyclic peptide L1 or BL1 varied in concentration was analyzed. The temperature was set at 30° C.

Sequence of VEGFR2 expressed by HUVEC (P35968 20-1356): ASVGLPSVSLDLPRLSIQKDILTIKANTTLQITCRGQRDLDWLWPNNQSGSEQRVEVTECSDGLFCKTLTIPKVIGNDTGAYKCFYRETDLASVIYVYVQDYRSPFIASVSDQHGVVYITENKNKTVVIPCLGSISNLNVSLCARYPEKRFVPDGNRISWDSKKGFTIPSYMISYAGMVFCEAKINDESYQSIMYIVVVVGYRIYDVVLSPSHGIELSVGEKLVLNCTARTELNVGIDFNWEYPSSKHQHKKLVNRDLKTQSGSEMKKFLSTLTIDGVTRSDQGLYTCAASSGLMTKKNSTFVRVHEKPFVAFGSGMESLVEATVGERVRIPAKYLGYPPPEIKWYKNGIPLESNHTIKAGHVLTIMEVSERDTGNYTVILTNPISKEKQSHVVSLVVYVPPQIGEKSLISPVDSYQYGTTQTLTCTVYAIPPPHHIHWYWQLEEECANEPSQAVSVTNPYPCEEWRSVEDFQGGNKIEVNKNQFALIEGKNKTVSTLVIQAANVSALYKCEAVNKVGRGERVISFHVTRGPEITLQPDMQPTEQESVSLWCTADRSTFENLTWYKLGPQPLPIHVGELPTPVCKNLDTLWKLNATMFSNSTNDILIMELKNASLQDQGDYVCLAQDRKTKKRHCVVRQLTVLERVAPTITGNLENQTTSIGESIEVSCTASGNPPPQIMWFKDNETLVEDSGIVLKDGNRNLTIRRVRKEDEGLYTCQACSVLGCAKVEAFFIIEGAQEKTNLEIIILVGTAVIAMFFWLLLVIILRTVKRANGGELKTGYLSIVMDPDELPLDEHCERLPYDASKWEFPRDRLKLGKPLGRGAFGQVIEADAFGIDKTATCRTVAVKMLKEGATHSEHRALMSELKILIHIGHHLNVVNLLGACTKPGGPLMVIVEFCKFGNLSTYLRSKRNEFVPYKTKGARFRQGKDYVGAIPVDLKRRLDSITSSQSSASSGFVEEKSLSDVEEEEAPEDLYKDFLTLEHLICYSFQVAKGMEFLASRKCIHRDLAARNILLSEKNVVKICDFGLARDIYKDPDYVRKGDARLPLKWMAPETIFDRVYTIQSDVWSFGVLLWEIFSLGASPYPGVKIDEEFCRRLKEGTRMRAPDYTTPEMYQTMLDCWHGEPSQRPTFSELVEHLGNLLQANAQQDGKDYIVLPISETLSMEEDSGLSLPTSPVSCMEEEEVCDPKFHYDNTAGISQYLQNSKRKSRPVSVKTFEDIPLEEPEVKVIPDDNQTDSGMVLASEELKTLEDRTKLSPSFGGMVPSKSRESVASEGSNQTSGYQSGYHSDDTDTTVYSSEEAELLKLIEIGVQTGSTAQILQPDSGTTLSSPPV

B1: cyclic peptide L1, synthesized: ClAc-Phe-Val-Val-Val-Ser-Thr-Asp-Pro-Trp-Val-Asn-Gly-Leu-Tyr-Ile-Asp-Cys-Gly (peptide)
peptide: {CH2CO}-FVVVSTDPWVNGLYIDCG-NH2
modifications: thioether N-17
SMILES: CC[C@H](C)[C@@H]1NC(=O)[C@H](Cc2ccc(O)cc2)NC(=O)[C@H](CC(C)C)NC(=O)CNC(=O)[C@H](CC(N)=O)NC(=O)[C@H](C(C)C)NC(=O)[C@H](Cc2c[nH]c3ccccc23)NC(=O)[C@@H]2CCCN2C(=O)[C@H](CC(=O)O)NC(=O)[C@H]([C@@H](C)O)NC(=O)[C@H](CO)NC(=O)[C@H](C(C)C)NC(=O)[C@H](C(C)C)NC(=O)[C@H](C(C)C)NC(=O)[C@H](Cc2ccccc2)NC(=O)CSC[C@@H](C(=O)NCC(N)=O)NC(=O)[C@H](CC(=O)O)NC1=O
notes: Made by Fmoc solid-phase synthesis, cyclised and HPLC purified; this form was used in BLI and in the cell assays
**Q.** B1 was tested. Which “growth inhibition of HUVEC with 10 ng/mL VEGF (BrdU method), IC50” value [1] did it give?
**A.** 60 nM

**Q.** And the Kd [2]?
**A.** 94 nM

**Q.** What about the koff [2] of the same binder?
**A.** 0.002 s⁻¹

**Q.** What about the kon [2] of the same binder?
**A.** 20000 M⁻¹ s⁻¹
